Results: article PMC11161652, “ASXLs binding to the PHD2/3 fingers of MLL4 provides a mechanism for the recruitment of BAP1 to active enhancers” (Nature Communications, 2024)

Tests used:
[1] = system: D372K/D400K MLL3PHD2/3 mutant; assay: GST pull-down, D372K/D400K MLL3PHD2/3; format: binding, human; conditions: D372K/D400K GST-MLL3PHD2/3; HEK293FT lysate, western blot
Method: (§1) Pull-down assays were performed by mixing resin-bound GST-MLL3PHD2/3 and GST-MLL4PHD2/3 (wild type and mutants) with lysates of HEK293FT expressing Myc-ASXL1, Myc-ASXL2 or Myc-ASXL2ΔMBH. Pellets of HEK293FT cells transfected with the appropriate pDEST expression construct (15 μg/dish using polyethylenimine (PEI)) were lysed with 10 times their volume of lysis buffer (50 mM Tris pH 7.3, 100 mM NaCl, 1 mM DTT, 1 mM EDTA, 1 mM PMSF, 0.1% Tween20, 1/100 anti-protease (Sigma)) and sonicated with a probe sonicator (Branson digital sonifier 450) calibrated at 40% amplitude for 3–4 rounds during 40–60 s. Lysates were then centrifuged in a Sorvall Lynx 6000 (rotor: F21-8x50Y) at 15,000 RPM during 20 min. Approximatively 9 μg of purified GST-fusion proteins bound to GSH resin (Sigma, G4510) were used for each condition. Final volume of GSH resin was adjusted to 30 μl per condition with empty GSH beads and incubated with 1.5 mL of HEK293FT lysate expressing Myc-ASXL1, Myc-ASXL2 or Myc-ASXL2ΔMBH for 3 h at 4 °C on a rotative system. A fraction of the reaction mixture (80 μL) was collected as the input. After the incubation, beads were washed 5 times and mixed with 100 μL of Laemmli buffer. Samples were loaded on 8% or 15% SDS-acrylamide gels and processed for western blotting.

GST-MLL4PHD2/3 = assay: GST pull-down, WT MLL4PHD2/3; format: binding, human; conditions: WT GST-MLL4PHD2/3; HEK293FT lysate, 3 h at 4 °C, western blot; n = 3
Method: as §1

PR-DUB complex = assay: Tandem affinity purification: association with PR-DUB complex; format: cell-based, human; conditions: K562 soluble nuclear extracts, 3Flag-2Strep tag, western blot and mass spectrometry
Method: (§2) Isogenic K562 cell lines expressing 3xFlag2xStrep-tagged ASXL2 WT and ΔMBH (aa 650-670), were generated by integration at the AAVS1 safe harbor locus after DSB induction and recombination targeted by co-transfection with a ZFN expression plasmid, as previously described. 2 × 10^5 cells were transfected with 400 ng of ZFN expression vector and 4 μg of donor constructs. Selection and cloning were performed in RPMI medium supplemented with 0.5 μg/mL puromycin starting 2–3 days post transfection. Clones were obtained by limiting dilution and expanded before harvest for western blot analysis.
(§3) For purification of native complexes, after large-scale expansion of K562 clones, affinity purifications of tagged ASXL2 WT and ΔMBH (aa 650-670) were performed on nuclear extracts as previously described. Briefly, nuclear extracts were prepared following standard procedures and pre-cleared with CL6B Sepharose beads. […] Typically, 5–15 μl of the elutions (1–3% of total) was loaded on NuPAGE 4–12% Bis-Tris gels (Invitrogen) and analyzed by silver staining and western blots. […] Purified fractions were prepared and analyzed at the Proteomics Platform of the Quebec Genomic Center using an Orbitrap Fusion mass spectrometer (Thermo Fisher Scientific) as previously described. […]

GST-MLL3PHD2/3 = assay: GST pull-down, WT MLL3PHD2/3; format: binding, human; conditions: WT GST-MLL3PHD2/3; HEK293FT lysate, 3 h at 4 °C, western blot; n = 3
Method: as §1

MLL3/4 complexes = assay: Tandem affinity purification: interaction with MLL3/4 complexes; format: cell-based, human; conditions: K562 soluble nuclear extracts, 3Flag-2Strep tag, western blot and mass spectrometry
Method: as §2, §3

[2] = system: active enhancer upstream of GRHL2 gene in K562 ASXL2 KD cells; assay: ChIP-qPCR at active enhancer upstream of GRHL2; format: cell-based, human; conditions: K562 ASXL2 KD cells complemented from AAVS1; IP/input corrected for total H3; three biological replicates
Description: K562 cell lines with knocked down expression of endogenous ASXL2 were obtained after double infection of lentivirus expressing Cas9 and 4 different gRNAs targeting the end of exon 1 (pLENTI_CRISPR_V2, co-selection by FACS with GFP). Clone 1 L was selected (obtained with gRNA 1: 5′-[…]-3′ cutting at the very end of exon 1) for transfection of WT and DMBH ASXL2 vectors for integration and stable expression from the AAVS1 safe harbor, as described for the tagged K562 cell lines used for purification. Expression levels of endogenous ASXL2, WT and ΔMBH ASXL2 were monitored by running SDS-PAGE and transferring onto nitrocellulose membrane. Anti-FLAG M2 conjugated to horseradish peroxidase (A8592, Sigma) was used at 1:10,000 dilution and anti-ASXL2, at 1:2,000 (Cell Signaling (E623X), CS71257, lot:1). Immunoblots were visualized using a Western Lightning plus ECL reagent (Perkin-Elmer).
Crosslinked chromatin from K562 cells and immunoprecipitations were prepared as previously described. For chromatin immunoprecipitation, 100 μg of chromatin was incubated with 2 μg anti-H2AK119ub (Cell Signaling, 8240S, D27C4 lot:9) or 3 μg anti-H3 (Abcam, ab1791, lot GR3421644-1), 2 μg anti-H3Kme1 (Abcam, ab8895, lot GR442591-1), 2 μg anti-H3K27ac (Thermo Fisher, MA5-23516, lot: ZA4181671) or 0.3 μg anti-H3K27me3 (Cell Signaling, C36B11, 9733 S lot:19) antibodies overnight at 4 °C. 25 μl of Protein A Dynabeads were then added to each sample, and the mixtures were incubated at 4 °C for 4 h. The beads were washed extensively and eluted with 1% SDS and 0.1 M NaHCO3. Cross-linked samples were reversed by heating overnight at 65 °C in the presence of 0.2 M NaCl. Samples were then treated with RNase A and proteinase K for 2 h, and DNA was recovered using MinElute PCR purification Kit (Qiagen, 28004) according to the manufacturer’s instructions. Quantitative real-time PCR corrected for primer efficiencies in the linear range was performed using SYBR Green I (Roche, 04877352001) on a LightCycler 480 (Roche). Primers for 5′ end of active enhancer: Fwd: 5′-[…]; Rev: 5′-[…]; For 3′ end: Fwd: 5′-[…], Rev: 5′-[…].

H2AK119 = H2AK119 deubiquitination assay; format: biochemical, human; conditions: purified complexes on human chromatin, 37 °C, 3 or 6 h, immunoblot
Method: The deubiquitination reactions were done by adding equivalent amounts of ASXL2 WT or ΔMBH (4 μl E1-F) native complexes purified from K562 cells to 0.5 μg of chromatin enriched extracts from K562 cells, incubated at 37 °C in 50 mM Tris-HCl pH 7.3, 50 mM NaCl, 1 mM MgCl2, 1 mM DTT, 1 mM PMSF, 10 μg/ml Leupeptin, 10 μg/ml Pepstatin A, 25 μg/ml Aprotinin. After 3 or 6 h incubation, 4X Laemmli buffer was added, the samples run on 15% SDS-PAGE and transferred on nitrocellulose membrane. Immunoblotting was performed with an anti-H2AK119ub (Cell Signaling, D27C4, rabbit polyclonal) diluted 1:2000 followed by HRP conjugated secondary goat anti-rabbit antibody (Sigma) used at a 1:10,000 dilution. The immunoblots were visualized using a Western Lightning plus-ECL reagent (Perkin-Elmer). Anti-H3 (Abcam, Ab1791, rabbit polyclonal) was used at a 1:50,000 dilution.
Cell pellets were harvested 2 days post-transfection and lysed with 10 times their own volume with EB300 lysis buffer (50 mM Tris pH 7.3, 300 mM NaCl, 0.5% Triton X100 (V/V), 5 mM EDTA, 50 mM NaF, 1 mM Na3VO4 (activated), 10 mM Beta-glycerol-phosphate, 1 mM DTT, 1 mM PMSF, 1/100 anti-protease (Sigma)). Lysates were incubated on ice for 30 min before centrifugation in a Sorvall Lynx 6000 (rotor: F21-8x50Y) at 15,000 RPM during 20 min. Supernatants were collected and diluted with EB0 (50 mM Tris pH 7.3, 0.5% Triton X100 (V/V), 5 mM EDTA, 50 mM NaF, 1 mM Na3VO4, 10 mM Beta-glycerol-phosphate, 1 mM DTT, 1 mM PMSF, 1/100 anti-protease) to adjust the final concentration of NaCl to 150 mM. Agarose anti-FlagM2 beads (40 μL) (Sigma, A2220) were added to each lysate and incubated overnight at 4 °C on a rotative system. The next day, beads were washed 5 times with the wash buffer (50 mM Tris pH 7.3, 150 mM NaCl, 0.5% Triton X100 (V/V), 1/500 anti-protease, 1 mM DTT, 1 mM PMSF). […] Following three elutions of 2 h each, the pooled fractions were incubated with 40 μL of anti-HA beads (Sigma A2095) overnight at 4 °C on a rotative system. […]

[3] = system: H3K4 (recombinant histone octamers or mono-nucleosomes); assay: H3K4 histone methyltransferase assay; format: biochemical, human; conditions: purified complexes, 50 μM S-adenosyl-L-methionine, 8 h at 30 °C, n = 2
Method: Equivalent amounts of purified ASXL2 WT and ΔMBH complexes were incubated with 0.5 μg of reconstituted recombinant mono-nucleosomes or histone octamers as substrates. All HMT assays were performed in 50 mM Tris-HCl pH 8, 100 mM KCl, 5 mM MgCl2, 0.1 mM DTT, 10% glycerol in the presence of 50 μM S-adenosyl-L-methionine (Sigma, A7007). After an 8 h incubation at 30 °C, 4X Laemmli buffer was added, the samples run on 15% SDS-PAGE and transferred on nitrocellulose membrane. Immunoblotting was performed with an anti-H3K4me1 (Ab8895, rabbit polyclonal) diluted 1:1000 followed by HRP conjugated secondary goat anti-rabbit antibody (Sigma) used at a 1:10,000 dilution. The immunoblots were visualized using a Western Lightning plus-ECL reagent (Perkin-Elmer). Anti-H4 (Abcam, Ab7311, rabbit polyclonal) was used at a 1:2,500 dilution.

[4] = system: MLL4PHD2/3 or MLL3PHD2/3 mutants; assay: GST pull-down, mutated MLL3/4PHD2/3; format: binding, human; conditions: mutated GST-MLL3/4PHD2/3; HEK293FT lysate, 3 h at 4 °C, western blot; n = 3
Method: as §1

B1: full-length ASXL2: full length wild type ASXL2 expressed in HEK293FT or K562 cells (protein)
chain: MREKGRRKKGRTWAEAAKTVLEKYPNTPMSHKEILQVIQREGLKEIRSGTSPLACLNAMLHTNSRGEEGIFYKVPGRMGVYTLKKDVPDGVKELSEGSEESSDGQSDSQSSENSSSSSDGGSNKEGKKSRWKRKVSSSSPQSGCPSPTIPAGKVISPSQKHSKKALKQALKQQQQKKQQQQCRPSISISSNQHLSLKTVKAASDSVPAKPATWEGKQSDGQTGSPQNSNSSFSSSVKVENTLLGLGKKSFQRSERLHTRQMKRTKCADIDVETPDSILVNTNLRALINKHTFSVLPGDCQQRLLLLLPEVDRQVGPDGLMKLNGSALNNEFFTSAAQGWKERLSEGEFTPEMQVRIRQEIEKEKKVEPWKEQFFESYYGQSSGLSLEDSKKLTASPSDPKVKKTPAEQPKSMPVSEASLIRIVPVVSQSECKEEALQMSSPGRKEECESQGEVQPNFSTSSEPLLSSALNTHELSSILPIKCPKDEDLLEQKPVTSAEQESEKNHLTTASNYNKSESQESLVTSPSKPKSPGVEKPIVKPTAGAGPQETNMKEPLATLVDQSPESLKRKSSLTQEEAPVSWEKRPRVTENRQHQQPFQVSPQPFLNRGDRIQVRKVPPLKIPVSRISPMPFHPSQVSPRARFPVSITSPNRTGARTLADIKAKAQLVKAQRAAAAAAAAAAAAASVGGTIPGPGPGGGQGPGEGGEGQTARGGSPGSDRVSETGKGPTLELAGTGSRGGTRELLPCGPETQPQSETKTTPSQAQPHSVSGAQLQQTPPVPPTPAVSGACTSVPSPAHIEKLDNEKLNPTRATATVASVSHPQGPSSCRQEKAPSPTGPALISGASPVHCAADGTVELKAGPSKNIPNPSASSKTDASVPVAVTPSPLTSLLTTATLEKLPVPQVSATTAPAGSAPPSSTLPAASSLKTPGTSLNMNGPTLRPTSSIPANNPLVTQLLQGKDVPMEQILPKPLTKVEMKTVPLTAKEERGMGALIATNTTENSTREEVNERQSHPATQQQLGKTLQSKQLPQVPRPLQLFSAKELRDSSIDTHQYHEGLSKATQDQILQTLIQRVRRQNLLSVVPPSQFNFAHSGFQLEDISTSQRFMLGFAGRRTSKPAMAGHYLLNISTYGRGSESFRRTHSVNPEDRFCLSSPTEALKMGYTDCKNATGESSSSKEDDTDEESTGDEQESVTVKEEPQVSQSAGKGDTSSGPHSRETLSTSDCLASKNVKAEIPLNEQTTLSKENYLFTRGQTFDEKTLARDLIQAAQKQMAHAVRGKAIRSSPELFSSTVLPLPADSPTHQPLLLPPLQTPKLYGSPTQIGPSYRGMINVSTSSDMDHNSAVPGSQVSSNVGDVMSFSVTVTTIPASQAMNPSSHGQTIPVQAFSEENSIEGTPSKCYCRLKAMIMCKGCGAFCHDDCIGPSKLCVSCLVVR
modifications: left off: Myc, end not stated, kept
notes: full length wild type ASXL2 expressed in HEK293FT or K562 cells
association in pull-down [1]: unable to bind full-length ASXL2 | association in pull-down (GST-MLL4PHD2/3): detected | association with PR-DUB complex (PR-DUB complex): stably associates with the expected components of the PR-DUB complex | association in pull-down (GST-MLL3PHD2/3): detected | interaction with MLL3/4 complexes (MLL3/4 complexes): co-fractionation of the PR-DUB complex with the components of the MLL3/4 complexes | H2AK119ub level [2]: decrease in H2AK119ub level at this enhancer | H3K4me1 level [2]: not affected | de-ubiquitination of H2AK119 (H2AK119): efficient and equivalent de-ubiquitination of H2AK119 | mono-methylation of H3K4 [3]: clearly detected | association in pull-down [4]: not with the MLL4PHD2/3 or MLL3PHD2/3 mutants
